Test results taken from article PMC2847226.

Assays:
[1] = molecular target: T1, Trx-HIS6-hTERT(1-200) (hTEN) (human, UniProt O14746 1-200); assay: competition EMSA
[2] = molecular target: Trx-HIS6-hTERT(1-200) T116A/T117A/S118A (human, UniProt O14746 1-200, T116A;T117A;S118A); assay: EMSA
[3] = molecular target: Trx-HIS6-hTERT(1-200) Y18A (human, UniProt O14746 1-200, Y18A); assay: EMSA
[4] = molecular target: Trx-HIS6-hTERT(1-200) Q169A (human, UniProt O14746 1-200, Q169A); assay: EMSA
[5] = molecular target: T1, Trx-HIS6-hTERT(1-200) (hTEN); assay: EMSA
[6] = molecular target: T1, Trx-HIS6-hTERT(1-200) (hTEN); assay: competition EMSA; remark: listed apart in the source
[7] = molecular target: T1, Trx-HIS6-hTERT(1-200) (hTEN); assay: competition EMSA; remark: listed apart in the source
[8] = molecular target: T1, Trx-HIS6-hTERT(1-200) (hTEN); assay: competition EMSA; remark: listed apart in the source
[9] = molecular target: T1, Trx-HIS6-hTERT(1-200) (hTEN); assay: competition EMSA; remark: listed apart in the source

T1 sequence (O14746 1-200): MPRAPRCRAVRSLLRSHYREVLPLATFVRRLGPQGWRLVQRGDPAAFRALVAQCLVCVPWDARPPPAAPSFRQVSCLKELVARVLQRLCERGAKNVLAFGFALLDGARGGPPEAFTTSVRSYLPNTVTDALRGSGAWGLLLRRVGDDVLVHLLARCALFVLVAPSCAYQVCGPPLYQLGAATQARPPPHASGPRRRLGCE
Trx-HIS6-hTERT(1-200) T116A/T117A/S118A, sequence (O14746 1-200 T116A/T117A/S118A): as the sequence (O14746 1-200) above, with T116A, T117A, S118A counted along it
Trx-HIS6-hTERT(1-200) Y18A, sequence (O14746 1-200 Y18A): as the sequence (O14746 1-200) above, with Y18A counted along it
Trx-HIS6-hTERT(1-200) Q169A, sequence (O14746 1-200 Q169A): as the sequence (O14746 1-200) above, with Q169A counted along it

B1: I.C11 (ssDNA)
DNA: TTAGGGTTAGCGTTAGGG
[1]
  binding signal: 7 fold lower apparent affinity vs I (relative IC50)

B2: (TTAGGG)3 / I (ssDNA)
DNA: TTAGGGTTAGGGTTAGGG
[2]
  binding result: binds
[3]
  binding result: binds
[4]
  binding result: binds
[5]
  binding result: binds

B3: III (ssDNA)
DNA: GGGTTAGGGTTAGGG
[6]
  binding result: binds

B4: IV (ssDNA)
DNA: GTTAGGGTTAGGG
[7]
  binding result: binds

B5: II (ssDNA)
DNA: GGGTTAGGGTTAGGGTTA
[6]
  binding result: binds

B6: VI.TA6 (ssDNA)
DNA: GGTTATTATTAGG
[8]
  binding result: binds

B7: VI / (GGTTAG)2G (ssDNA)
DNA: GGTTAGGGTTAGG
[9]
  binding result: binds
